Laboratory results published in PMC6908751 (Cell host & microbe, 2019).

B1: human anti-N9 antibody NA-63 Fab (Fab, V domains shown)
VH: EVQLVESGGGLVQPGGSLRLSCAASGFTFSSYWMSWVRQAPGKGLDWVANIKQDGSEKYYVDSVKGRFTISRHNAKNSLYLQMNSLRAEDTAVYYCASSTAAEFFDYWGQGTLVTVSS
VL: DIVMTQSPSSLSASVGDRVTITCRASQSISTYLNWYQQKPGKAPKLLIYAASSLQGGVPSRFSGSGSGTDFTLTISSLQPEDFATYYCQQSYSTPLYTFGQGTKLEIK
B2: human anti-N9 antibody NA-80 Fab (Fab, V domains shown)
VH: QVQLVQSGAEVKRPGASVKVSCKASGYTFISYGISWVRQAPGQGLEWMGWISAYNGNTNYAQNLQGRVTMTTDTSTSTAYMELRSLRSDDTAVYYCARVIPGTAVDYFDYWGQGTLVTVSS
VL: DIVMTQSPSSLSASVGDRVTISCRASQSISSYLNWYQQKPGKAPKLLIYAASSLQSGVPSRFSGSASGTDFTLTISSLQPEDFATYYCQQSYSAPFTFGPGTKVDIE
B3: human anti-N9 antibody NA-22 Fab (Fab, V domains shown)
VH: QVQLVESGGGVVQPGRSLRLSCAASGFTFNNYGMHWVRQAPGKGLEWVAVISYDGSNKYYADSVKGRFTISRDNSKNTLYLQMNSLRAEDTAVYYCAKDKRFITMILVGPFDYWGQGTLVTVSS
VL: QSVLTQPASVSGSPGQSITISCTGTSSDVGGYNYVSWHQQHPGKAPKLMIYDVSNRPSGVSNRFSGSKSGNTASLTISGLQTEDEADYYCSSYTSSTTNVFGTGTKVTVL
B4: human anti-N9 antibody NA-73 Fab (Fab, V domains shown)
VH: QVQLEESGPGLVKPSETLSLTCTVSGYTISSGYYWGWIRQPPGKGLEWIGCNNHRGSSYYNPSLKSRVIISVDTTKNKFSLKLSSVTAADTAVYYCARDPSFWSSTSRTSPYYYGMDVWGQGTLVTVSS
VL: not shown

Target: Sh2 N9 NA ectodomain plus stalk with His6-tag (tetramer) (influenza A virus A/Shanghai/02/2013 …)
Assay: cryo-EM structure

| Binder | binding result | stoichiometry N |
| --- | --- | --- |
| B1 | binds |  |
| B2 |  | 1 Fab per NA protomer |
| B3 |  | 4 Fabs per NA tetramer |
| B4 |  | 1 Fab per NA protomer |
